From publication PMC5890177, “Selective Detection of Lysozyme Biomarker Utilizing Large Area Chemical Vapor Deposition-Grown Graphene-Based Field-Effect Transistor”

Molecular target: lysozyme (chicken (egg white), UniProt P00698 19-147)
Experiment: square wave voltammetry (electrochemical aptasensor); 0.01x PBS; peak current falls with lysozyme; 0.01x PBS (stock dilutions in 0.1 mM phosphate-buffered solution, pH 7.4), 30 min incubation, then rinse in 0.01x PBS and DI water; chip pretreated with Tween 20; binding temperature not stated
Details: protein: commercial; label: methylene blue

Chain of lysozyme (P00698 19-147): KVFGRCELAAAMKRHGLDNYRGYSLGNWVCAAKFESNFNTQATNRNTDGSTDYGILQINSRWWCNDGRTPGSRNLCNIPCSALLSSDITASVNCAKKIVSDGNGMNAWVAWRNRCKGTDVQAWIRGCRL

B1: MB-labelled thiolated anti-lysozyme aptamer (ssDNA)
DNA: ATCAGGGCTAAAGAGTGCAGAGTTACTTAG
modifications: thiol
B1: binds.
